Test [1] concerns the target T1, fibroblast activating protein alpha (FAPα), cell surface-bound (human, UniProt Q12884 1-760).
T1 construct: whole, on cells; Also used as the target of the FAP-specific immunohistological staining of tumour cryo-sections; also called FAP+ cells; FAP overexpressing fibrosarcoma cells (HT1080)
T1 sequence (looked up): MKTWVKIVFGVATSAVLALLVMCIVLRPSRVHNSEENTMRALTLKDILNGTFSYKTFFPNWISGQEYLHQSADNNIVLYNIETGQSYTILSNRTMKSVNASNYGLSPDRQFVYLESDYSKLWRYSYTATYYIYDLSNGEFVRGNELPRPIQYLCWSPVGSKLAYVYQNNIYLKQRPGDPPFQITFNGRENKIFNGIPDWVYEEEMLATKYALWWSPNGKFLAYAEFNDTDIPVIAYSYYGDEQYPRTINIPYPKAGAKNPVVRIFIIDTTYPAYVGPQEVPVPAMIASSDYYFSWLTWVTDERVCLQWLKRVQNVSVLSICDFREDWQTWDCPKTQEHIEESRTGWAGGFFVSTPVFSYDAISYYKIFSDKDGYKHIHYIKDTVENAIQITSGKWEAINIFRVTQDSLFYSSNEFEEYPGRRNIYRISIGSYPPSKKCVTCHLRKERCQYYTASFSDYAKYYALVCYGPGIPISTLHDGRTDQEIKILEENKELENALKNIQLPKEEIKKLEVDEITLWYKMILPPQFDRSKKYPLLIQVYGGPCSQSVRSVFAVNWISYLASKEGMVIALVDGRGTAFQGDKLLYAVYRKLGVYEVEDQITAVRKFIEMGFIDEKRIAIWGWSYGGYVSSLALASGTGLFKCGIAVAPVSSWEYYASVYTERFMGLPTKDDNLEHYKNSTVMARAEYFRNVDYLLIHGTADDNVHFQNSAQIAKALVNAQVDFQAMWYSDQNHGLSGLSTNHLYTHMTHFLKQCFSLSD
Description: binding to FAP+ cells, cell analyser, half maximal saturation.

Test [2] concerns the target T2, fibroblast activating protein alpha (FAPα), purified / immobilised antigen (human, UniProt Q12884 27-760, limits assumed).
T2 construct: Antigen coated on ELISA wells and immunotubes; The construct is not described; also called human FAP; immobilized FAP
T2 sequence (looked up): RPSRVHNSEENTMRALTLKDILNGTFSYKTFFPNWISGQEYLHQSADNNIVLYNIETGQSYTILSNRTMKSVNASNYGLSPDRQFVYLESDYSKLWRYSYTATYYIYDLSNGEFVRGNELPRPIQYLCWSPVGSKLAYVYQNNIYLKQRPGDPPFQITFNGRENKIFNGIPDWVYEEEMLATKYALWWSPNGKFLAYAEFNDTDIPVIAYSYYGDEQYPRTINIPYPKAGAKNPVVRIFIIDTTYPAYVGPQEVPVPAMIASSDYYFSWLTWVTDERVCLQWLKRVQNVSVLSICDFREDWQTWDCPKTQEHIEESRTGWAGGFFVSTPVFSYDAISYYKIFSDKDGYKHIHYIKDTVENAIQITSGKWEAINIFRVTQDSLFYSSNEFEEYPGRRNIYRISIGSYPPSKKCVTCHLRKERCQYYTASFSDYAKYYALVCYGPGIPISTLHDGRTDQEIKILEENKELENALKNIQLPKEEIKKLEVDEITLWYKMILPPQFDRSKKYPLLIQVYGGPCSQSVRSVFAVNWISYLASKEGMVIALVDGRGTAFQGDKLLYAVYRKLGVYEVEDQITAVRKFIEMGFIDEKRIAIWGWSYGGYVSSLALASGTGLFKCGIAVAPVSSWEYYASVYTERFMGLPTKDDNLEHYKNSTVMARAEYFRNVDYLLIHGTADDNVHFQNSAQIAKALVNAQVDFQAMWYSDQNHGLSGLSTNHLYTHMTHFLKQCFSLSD
Description: sandwich ELISA, half maximal saturation of binding (SC50), c-myc tag detection.

Test [3] deals with T1, fibroblast activating protein alpha …. Description: flow cytometry on FAP overexpressing HT1080 cells, half maximal saturation (SC50). A general note: Flow cytometry measures light scatter and fluorescence of single cells or particles in a stream.

B1: scFv #50 as bivalent in minibody format (other)
chain: QVQLVESGGGLVQPGGSLRLSCAASGFTFSNYWMSWVRQAPGKGLEWVANIKQDGSEKYYVDSVKGRFTISRDNAKNSLYLQMNSLRAEDTAVYYCARGSLCTDGSCPTIGPGPNWGQGTLVTVSSAPTKAPKLEEGEFSEARVDIQMTQSPSSLSASTGDRVTITCRASQDISSYLAWYQQAPGKAPHLLMSGATTLQTGVPSRFSGSGSGTDFTLTITSLQSEDFATYYCQQYYIYPPTFGQGTRVEIKRTVAAPSVFAA
In general, EC50 refers to the concentration giving half of the maximal effect. The low end stands for an effect from little substance, the high end for a need for much substance. Consider B1, for which the EC50 in test [1] came to 32 nM.

B2: scFv #13 as bivalent in minibody format (other)
chain: QVQLVESGGTLVQPGGSLRLSCAASGFTFSSYAMSWIRQAPGKGLEWVSGISASGGYIDYADSVKGRVTISRDNSKNMAYLQMSSLRAEDTALYYCAKGGNYQMLLDHWGQGTLVTVSSASTKGPKLEEGEFSEARVDIQMTQSPSSLSASTGDRVTITCRASQDISSYLAWYQQAPGKAPHLLMSGATTLQTGVPSRFSGSGSGTDFTLTITSLQSEDFATYYCQQYYIYPPTFGQGTRVEIKRTVAAPSVFAA
For B2, the EC50 in test [1] lay within 8 to 12 nM.

B3: scFv F19 (parental murine scFv) (scFv, V domains shown)
VH: EVQLQQSGPELVKPGASVKMSCKTSRYTFTEYTIHWVRQSHGKSLEWIGGINPNNGIPNYNQKFKGRATLTVGKSSSTAYMELRSLTSEDSAVYFCARRRIAYGYDEGHAMDYWGQGTSVTVSS
VL: DIVMSQSPSSLAVSVGEKVTMSCKSSQSLLYSRNQKNYLAWFQQKPGQSPKLLIFWASTRESGVPDRFTGSGFGTDFNLTISSVQAEDLAVYDCQQYFSYPLTFGAGTKLELK
As to B3, the EC50 in test [2] and in test [3] was 20 nM each time.

These data come from patent WO2001068708A2 (dated 2001).
